Experimental data reported in patent publication EP4563159A1.

Target: secretory IgA from human colostrum (human) (UniProt P11912)
Assay: solid-phase IgA binding assay (ELISA): streptavidin-peptide conjugate coated, secretory IgA from human colostrum titrated, anti-human IgA-HRP detection

Chain of UniProt P11912 (P11912 whole entry): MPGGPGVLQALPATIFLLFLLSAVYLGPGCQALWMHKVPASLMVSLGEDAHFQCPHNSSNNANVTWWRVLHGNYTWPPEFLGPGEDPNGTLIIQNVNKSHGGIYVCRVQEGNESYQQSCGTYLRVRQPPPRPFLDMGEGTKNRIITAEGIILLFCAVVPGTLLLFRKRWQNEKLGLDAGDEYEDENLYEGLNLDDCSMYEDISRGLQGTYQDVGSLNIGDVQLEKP

Row | Binder | EC50 [nM]
1 | KMVCLAYRGRPVCFPT (cyclized; carboxy terminal PEG linker and a biotin tag) [IgA binding peptide … (SEQ ID NO 35)] | 900
2 | HSVCLAYRGRPVCFPT (cyclized; carboxy terminal PEG linker and a biotin tag) [IgA binding peptide … (SEQ ID NO 36)] | 900
